Measurements taken from publication PMC2894052.

Biological target: recombinant Dnmt1 protein (Dnmt1^R), not treated with a kinase (human) (UniProt P26358)
Sequence of UniProt P26358 (P26358 whole entry): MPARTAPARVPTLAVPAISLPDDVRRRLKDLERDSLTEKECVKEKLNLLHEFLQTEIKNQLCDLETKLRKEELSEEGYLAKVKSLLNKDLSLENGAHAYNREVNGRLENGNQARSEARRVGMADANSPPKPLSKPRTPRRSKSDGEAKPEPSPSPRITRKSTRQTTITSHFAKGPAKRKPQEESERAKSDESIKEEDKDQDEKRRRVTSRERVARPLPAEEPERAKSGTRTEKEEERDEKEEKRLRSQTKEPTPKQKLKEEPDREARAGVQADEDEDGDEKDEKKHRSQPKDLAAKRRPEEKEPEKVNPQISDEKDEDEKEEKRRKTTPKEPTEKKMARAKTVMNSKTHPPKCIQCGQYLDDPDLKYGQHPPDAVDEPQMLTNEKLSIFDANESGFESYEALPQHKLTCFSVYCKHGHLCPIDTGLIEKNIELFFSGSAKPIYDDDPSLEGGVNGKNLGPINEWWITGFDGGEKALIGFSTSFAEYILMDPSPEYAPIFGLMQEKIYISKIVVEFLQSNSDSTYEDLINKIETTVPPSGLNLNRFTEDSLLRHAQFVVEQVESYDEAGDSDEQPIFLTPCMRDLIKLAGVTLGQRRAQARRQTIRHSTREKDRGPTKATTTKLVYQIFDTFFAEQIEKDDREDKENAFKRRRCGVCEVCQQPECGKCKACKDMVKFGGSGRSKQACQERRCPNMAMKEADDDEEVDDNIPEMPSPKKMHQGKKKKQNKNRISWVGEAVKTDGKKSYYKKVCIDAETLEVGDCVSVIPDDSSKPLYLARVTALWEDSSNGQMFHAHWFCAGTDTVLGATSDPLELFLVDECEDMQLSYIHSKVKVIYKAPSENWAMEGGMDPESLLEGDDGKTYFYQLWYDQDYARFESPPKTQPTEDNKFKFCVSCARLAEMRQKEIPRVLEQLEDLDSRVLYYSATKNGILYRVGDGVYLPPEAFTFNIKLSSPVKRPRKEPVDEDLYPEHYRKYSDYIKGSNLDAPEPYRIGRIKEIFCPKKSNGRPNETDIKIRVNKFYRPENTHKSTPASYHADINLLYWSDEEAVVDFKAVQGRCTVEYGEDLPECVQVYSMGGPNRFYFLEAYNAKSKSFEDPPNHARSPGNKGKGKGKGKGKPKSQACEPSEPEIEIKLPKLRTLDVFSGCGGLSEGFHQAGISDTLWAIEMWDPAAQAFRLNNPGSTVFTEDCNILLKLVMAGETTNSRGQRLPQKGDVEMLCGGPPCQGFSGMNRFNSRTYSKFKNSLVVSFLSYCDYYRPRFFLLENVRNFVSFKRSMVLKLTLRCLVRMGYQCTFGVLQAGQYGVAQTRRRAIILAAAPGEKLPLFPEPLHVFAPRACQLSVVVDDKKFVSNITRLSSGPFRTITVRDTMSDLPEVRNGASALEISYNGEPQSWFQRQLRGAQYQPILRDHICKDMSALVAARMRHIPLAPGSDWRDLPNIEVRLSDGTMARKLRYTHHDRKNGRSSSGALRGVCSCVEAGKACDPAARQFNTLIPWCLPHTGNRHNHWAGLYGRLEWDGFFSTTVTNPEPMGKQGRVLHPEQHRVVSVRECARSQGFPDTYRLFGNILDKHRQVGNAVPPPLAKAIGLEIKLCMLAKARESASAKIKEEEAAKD

mMTase activity (DMB assay, incorporation of 3H-radiolabelled methyl groups) of Dnmt1 with an equimolar quantity of UHRF1, against that of pDnmt1^S127/S143 and pDnmt1^S127 | mMTase activity (DMB assay, incorporation of 3H-radiolabelled methyl groups) of Dnmt1 with an equimolar quantity of PCNA, against that of pDnmt1^S127/S143 and pDnmt1^S127 | Substance
4 fold |  | GST-UHRF1 (from UniProt Q96T88 1-793) (natural protein)
 | 5 fold | GST-PCNA (from UniProt P12004 1-261) (natural protein)
